Patent US10556944B2, “Fab region-binding peptide” (priority 2013, dated 2020)
Where no end group is shown, it is not given here.

Molecular target: T1, anti-TNFα antibody-Fab (IgG-Fab derived from anti-TNFα monoclonal antibody, adalimumab) (Homo sapiens, UniProt P01834+P01857)
T1 construct: cleaving a humanized monoclonal IgG formulation as a starting material into a Fab fragment and an Fc fragment by papain; purchased
Experiment: Biacore 3000 surface plasmon resonance, affinity of SpG-β1 mutants for immobilized IgG-Fab
Format: binding
Details: Table 2, Example 3, GST-fused one-domain peptide; for koff / kon: 25° C., pH 7.4; for KA Vs. Wild: fold of wild-type KA

Substance	KA [M⁻¹]	koff [s⁻¹]	kon [s/M]	KA Vs. Wild
K10R/K13T/E15Q/K28R/F30L/D36G/E42V: GST-fused one-domain SpG-β1 mutant, amino acid SEQ ID NO: 69 (TTYKLILNGRTLTGQTTTEAVDAATAERVLKQYANGNGVDGVWTYDDATKTFTVTE; also: GST-fused, end not given here)	3.3e+06	0.0035	115000	8.8
K13S/E19I/F30L: GST-fused one-domain SpG-β1 mutant, amino acid SEQ ID NO: 29 (TTYKLILNGKTLSGETTTIAVDAATAEKVLKQYANDNGVDGEWTYDDATKTFTVTE; also: GST-fused, end not given here)	2.23e+06		137000	6.0
K13S/E19V/F30L/Y33F: GST-fused one-domain SpG-β1 mutant, amino acid SEQ ID NO: 81 (TTYKLILNGKTLSGETTTVAVDAATAEKVLKQFANDNGVDGEWTYDDATKTFTVTE; also: GST-fused, end not given here)	1.54e+06	0.0064	98400	4.1
K13T/D22N/A23T/T25S/F30L/A48T: GST-fused one-domain SpG-β1 mutant, amino acid SEQ ID NO: 73 (TTYKLILNGKTLTGETTTEAVNTASAEKVLKQYANDNGVDGEWTYDDTTKTFTVTE; also: GST-fused)	1.06e+06	0.0098	104000	2.8
K13T/E15Q/E19I/E27D/V39I/D47H: GST-fused one-domain SpG-β1 mutant, amino acid SEQ ID NO: 77 (TTYKLILNGKTLTGQTTTIAVDAATADKVFKQYANDNGIDGEWTYDHATKTFTVTE; also: GST-fused)	1.85e+06	0.0067	124000	4.9
K13T/E15Q/E19V/F30L/V39L: GST-fused one-domain SpG-β1 mutant, amino acid SEQ ID NO: 61 (TTYKLILNGKTLTGQTTTVAVDAATAEKVLKQYANDNGLDGEWTYDDATKTFTVTE; also: GST-fused)	1.42e+06	0.0063	89800	3.8
K13T/E15T/E19I/T25M/E27G/F30L/N35Y: GST-fused one-domain SpG-β1 mutant, amino acid SEQ ID NO: 63 (TTYKLILNGKTLTGTTTTIAVDAAMAGKVLKQYAYDNGVDGEWTYDDATKTFTVTE; also: GST-fused)	1.28e+06	0.0063	80700	3.4
K13T/E19I/A23D/V39L: GST-fused one-domain SpG-β1 mutant, amino acid SEQ ID NO: 31 (TTYKLILNGKTLTGETTTIAVDDATAEKVFKQYANDNGLDGEWTYDDATKTFTVTE; also: GST-fused)	1.36e+06		84300	3.6
K13T/E19I/A23T/F30L/Y33F/D47N/K50R: GST-fused one-domain SpG-β1 mutant, amino acid SEQ ID NO: 45 (TTYKLILNGKTLTGETTTIAVDTATAEKVLKQFANDNGVDGEWTYDNATRTFTVTE; also: GST-fused)	2.63e+06	0.0046	120000	7.0
K13T/E19I/A23T/T25M/F30L: GST-fused one-domain SpG-β1 mutant, amino acid SEQ ID NO: 49 (TTYKLILNGKTLTGETTTIAVDTAMAEKVLKQYANDNGVDGEWTYDDATKTFTVTE; also: GST-fused)	1.12e+06	0.0091	102000	3.0
K13T/E19I/D22E/A24T/F30L/Y33F/D47G: GST-fused one-domain SpG-β1 mutant, amino acid SEQ ID NO: 79 (TTYKLILNGKTLTGETTTIAVEATTAEKVLKQFANDNGVDGEWTYDGATKTFTVTE; also: GST-fused)	1.32e+06	0.0053	69500	3.5
K13T/E19I/E27D/F30L/K31R: GST-fused one-domain SpG-β1 mutant, amino acid SEQ ID NO: 35 (TTYKLILNGKTLTGETTTIAVDAATADKVLRQYANDNGVDGEWTYDDATKTFTVTE; also: GST-fused)	2.74e+06		150000	7.3
K13T/E19I/F30L/D47A/K50E: GST-fused one-domain SpG-β1 mutant, amino acid SEQ ID NO: 65 (TTYKLILNGKTLTGETTTIAVDAATAEKVLKQYANDNGVDGEWTYDAATETFTVTE; also: GST-fused)	1.14e+06	0.0062	70900	3.1
K13T/E19I/F30L/D47N: GST-fused one-domain SpG-β1 mutant, amino acid SEQ ID NO: 43 (TTYKLILNGKTLTGETTTIAVDAATAEKVLKQYANDNGVDGEWTYDNATKTFTVTE; also: GST-fused)	1.27e+06	0.0073	92600	3.4
K13T/E19I/F30L/Y33F/V39I/D47H: GST-fused one-domain SpG-β1 mutant, amino acid SEQ ID NO: 23 (TTYKLILNGKTLTGETTTIAVDAATAEKVLKQFANDNGIDGEWTYDHATKTFTVTE; also: GST-fused)	2.06e+06	0.0039	79400	5.5
K13T/E19I/F30L/Y33F: GST-fused one-domain SpG-β1 mutant, amino acid SEQ ID NO: 47 (TTYKLILNGKTLTGETTTIAVDAATAEKVLKQFANDNGVDGEWTYDDATKTFTVTE; also: GST-fused)	1.59e+06	0.0067	106000	4.3
K13T/E19I/F30L/Y45F/D47Y: GST-fused one-domain SpG-β1 mutant, amino acid SEQ ID NO: 83 (TTYKLILNGKTLTGETTTIAVDAATAEKVLKQYANDNGVDGEWTFDYATKTFTVTE; also: GST-fused)	1.39e+06	0.007	97700	3.7
K13T/E19I/K28I/F30L/N35F: GST-fused one-domain SpG-β1 mutant, amino acid SEQ ID NO: 57 (TTYKLILNGKTLTGETTTIAVDAATAEIVLKQYAFDNGVDGEWTYDDATKTFTVTE; also: GST-fused)	1.4e+06	0.0063	88000	3.7
K13T/E19I/K28I/F30L/Y33F/E42Q/D47Y: GST-fused one-domain SpG-β1 mutant, amino acid SEQ ID NO: 59 (TTYKLILNGKTLTGETTTIAVDAATAEIVLKQFANDNGVDGQWTYDYATKTFTVTE; also: GST-fused)	1.45e+06	0.0063	91000	3.9
K13T/E19I/K28N/E42K: GST-fused one-domain SpG-β1 mutant, amino acid SEQ ID NO: 39 (TTYKLILNGKTLTGETTTIAVDAATAENVFKQYANDNGVDGKWTYDDATKTFTVTE; also: GST-fused)	1.1e+06	0.0124	137000	3.0
K13T/E19I/K28N/F30L/D40V: GST-fused one-domain SpG-β1 mutant, amino acid SEQ ID NO: 33 (TTYKLILNGKTLTGETTTIAVDAATAENVLKQYANDNGVVGEWTYDDATKTFTVTE; also: GST-fused)	1.43e+06		108000	3.8
K13T/E19I/K28N/F30L/Y33F: GST-fused one-domain SpG-β1 mutant, amino acid SEQ ID NO: 53 (TTYKLILNGKTLTGETTTIAVDAATAENVLKQFANDNGVDGEWTYDDATKTFTVTE; also: GST-fused)	1.44e+06	0.0061	88000	3.9
K13T/E19I/K28R/F30L/Y33F: GST-fused one-domain SpG-β1 mutant, amino acid SEQ ID NO: 27 (TTYKLILNGKTLTGETTTIAVDAATAERVLKQFANDNGVDGEWTYDDATKTFTVTE; also: GST-fused)	2.02e+06		85500	5.4
K13T/E19I/V21D/K28I/F30L/K31R/D47H: GST-fused one-domain SpG-β1 mutant, amino acid SEQ ID NO: 75 (TTYKLILNGKTLTGETTTIADDAATAEIVLRQYANDNGVDGEWTYDHATKTFTVTE; also: GST-fused)	1.39e+06	0.0068	95000	3.7
K13T/E19I/V21D/T25M/F30L/Y33F/N35F/D47A: GST-fused one-domain SpG-β1 mutant, amino acid SEQ ID NO: 55 (TTYKLILNGKTLTGETTTIADDAAMAEKVLKQFAFDNGVDGEWTYDAATKTFTVTE; also: GST-fused)	3.47e+06	0.003	104000	9.3
K13T/E19I/V21N/K28I/F30L: GST-fused one-domain SpG-β1 mutant, amino acid SEQ ID NO: 37 (TTYKLILNGKTLTGETTTIANDAATAEIVLKQYANDNGVDGEWTYDDATKTFTVTE; also: GST-fused)	3.01e+06	0.0071	214000	8.1
